According to PMC5110118:

Target: C-terminal NanoLuc luciferase fragment, residues 66–171 (66C), bacterial construct
Experiment: split reporter

- fold increase in luminescence over 66C alone: 10 fold
Substance: N-terminal NanoLuc luciferase fragment, residues 1–65 (N65), bacterial construct (domain or fragment)
